According to US20130345115A1:

Tests used:
[1] = molecular target: (Δ1-28) H4 nucleosome (mononucleosome with FLAG-HA-tagged tailless human H4 lacking the first 28 amino acids) (human; human (293T cells)) (UniProt P62805); assay: MudPIT, co-purification
[2] = molecular target: Wild type H4 nucleosome (mononucleosome with FLAG-HA-tagged wild type human H4) (human; human (293T cells)) (UniProt P62805); assay: MudPIT, co-purification

Substance	amino acid coverage [1] [%]	peptide count [1] [peptides]	amino acid coverage [2] [%]	peptide count [2] [peptides]
H1 histone family, member 0 (H1F0) (from UniProt P07305 2-194)	16.2	2	21.2	3
Histone H2A	74.1	6	63.1	5
Histone H2B	59.4	5	54.7	5
Histone H3	89.6	7	82.6	6
RAD23 homolog B (S. cerevisiae) (from UniProt P54727 1-409)	8.9	1		
RuvB-like 1 (E. coli) (from UniProt Q9Y265 1-456)	21.3	8	19.1	7
RuvB-like 2 (E. coli) (from UniProt Q9Y230 2-463)	16.3	8	13.4	5
SWI/SNF related, matrix associated, actin dependent regulator of chromatin, subfamily a, member 5 (from UniProt O60264 2-1052)	28.3	13	20	9
Snf2-related CREBBP activator protein (from UniProt Q6ZRS2 1-3230)	1.9	3		
TATA box binding protein-associated factor, 135 kDa (from UniProt O00268 1-1085)			6.6	5
WD repeat domain 77 (from UniProt Q9BQA1 1-342)	11.4	2		
X-ray repair complementing defective repair in Chinese hamster cells 5 (from UniProt P13010 2-732)	5.3	2	4.4	2
X-ray repair complementing defective repair in Chinese hamster cells 6 (from UniProt P12956 2-609)	3.2	1	5.7	2
anti-silencing function 1 homolog B (from UniProt Q9NVP2 1-202)	18.8	2		
chromatin assembly factor 1, subunit A (from UniProt Q13111 1-956)	4.9	3	5.5	3
chromobox homolog 3 (HP1 gamma homolog, Drosophila) (from UniProt Q13185 2-183)	14.7	2	13.2	2
chromobox homolog 5 (HP1 alpha homolog, Drosophila) (from UniProt P45973 1-191)	21.4	3	21.4	3

Substance	amino acid coverage [1] [%]	peptide count [1] [peptides]	amino acid coverage [2] [%]	peptide count [2] [peptides]
chromodomain helicase DNA binding protein 4 (from UniProt Q14839 1-1912)	0.6	1	1.2	2
damage-specific DNA binding protein 1, 127 kDa (from UniProt Q16531 2-1140)	3.7	2	5.4	3
death-domain associated protein (from UniProt Q9UER7 1-740)	2.4	1		
euchromatic histone-lysine N-methyltransferase 2 (G9a) (from UniProt Q96KQ7 2-1210) (enzyme)		0	4	2
histone H2AX (from UniProt P16104 2-143)	8.4	1	13.7	2
histone cluster 1, H1a (HIST1H1A) (from UniProt Q02539 2-215)	11.8	2	11.2	2
histone cluster 1, H1b (HIST1H1B) (from UniProt P16401 2-226)	12.8	2	12.5	2
histone cluster 1, H1c (HIST1H1C) (from UniProt P16403 2-213)	12.3	2	10.3	2
histone cluster 1, H1d (HIST1H1D) (from UniProt P16402 2-221)	6.4	1	8.6	1
histone deacetylase 1 (from UniProt Q13547 1-482) (enzyme)		0	12.9	5
mediator of DNA-damage checkpoint 1 (from UniProt Q14676 1-2089)	18.4	4		
metal response element binding transcription factor 2 (from UniProt Q9Y483 1-593)			4.6	2
nucleolin (from UniProt P19338 2-710)	16.3	8	12	6
protein arginine methyltransferase 5 (from UniProt O14744 2-637) (enzyme)	23.8	9	21.8	9
suppressor of Ty 16 homolog (S. cerevisiae) (from UniProt Q9Y5B9 2-1047)	21.6	12	17.2	12
suppressor of zeste 12 homolog (Drosophila) (from UniProt Q15022 1-739)	1.4	1	5.1	3

More lines, now with the values ahead:

amino acid coverage [1] [%]	peptide count [1] [peptides]	amino acid coverage [2] [%]	peptide count [2] [peptides]	Substance
8.8	1			ADP-ribosylation factor 1 (from UniProt P84077 2-181)
	0	5.7	3	EuHMT1 (from UniProt Q9H9B1 2-1298) (enzyme)
		4.3	3	SWI/SNF complex 170 KDa subunit (from UniProt Q8TAQ2 1-1214)
19.2	9	24.9	11	SWI/SNF related, matrix associated, actin dependent regulator of chromatin, subfamily a, member 1 (from UniProt P28370 1-1042)
22.8	3	17.3	2	chromobox homolog 1 (HP1 beta homolog Drosophila) (from UniProt P83916 1-185)
11.8	2	6.2	1	histone cluster 1, H1e (HIST1H1E) (from UniProt P10412 2-219)
48.2	10	55.1	11	macroH2A1.1 and macroH2A1.2 (from UniProt O75367 1-369)
3.1	1	12.3	5	methyl CpG binding protein 2 (Rett syndrome) (from UniProt P51608 1-486)
44.2	23	41.3	21	poly (ADP-ribose) polymerase 1 (from UniProt P09874 2-1014) (enzyme)
11.7	10	12.2	12	remodeling and spacing factor 1 (from UniProt Q96T23 1-1441)
11.9	7	15.8	9	structure specific recognition protein 1 (from UniProt Q08945 2-709)
		3.4	2	thyroid hormone receptor-associated protein complex component (from UniProt Q9Y2W1 2-955)
4.2	3	7.4	5	topoisomerase (DNA) I (from UniProt P11387 2-765) (enzyme)
		2.4	3	transcription factor 20 (AR1) (from UniProt Q9UGU0 1-1960)
